# Source: US20140087995A1 (published 2014)
# Numbered stars: 1 amine (or outer) side, 2 acyl side, 3 side chain; on linkers, the order of the positions; unused ones are H or OH. Bridge positions count the residues as written; N and C are the ends. Side chains are listed from the residue outwards. Ends that are not written are not given here. * marks the point of attachment. C20 diacid = O=C(O)CCCCCCCCCCCCCCCCCCC(=O)*; γGlu = O=C(O)[C@H](CCC(=O)[*:2])N[*:1]
# T1: human amylin receptor (amylin 3(a) receptor: human calcitonin receptor co-expressed with RAMP-3) (human, UniProt P30988 25-474; O60896 24-148, limits assumed)
# T1 sequence (looked up) 1: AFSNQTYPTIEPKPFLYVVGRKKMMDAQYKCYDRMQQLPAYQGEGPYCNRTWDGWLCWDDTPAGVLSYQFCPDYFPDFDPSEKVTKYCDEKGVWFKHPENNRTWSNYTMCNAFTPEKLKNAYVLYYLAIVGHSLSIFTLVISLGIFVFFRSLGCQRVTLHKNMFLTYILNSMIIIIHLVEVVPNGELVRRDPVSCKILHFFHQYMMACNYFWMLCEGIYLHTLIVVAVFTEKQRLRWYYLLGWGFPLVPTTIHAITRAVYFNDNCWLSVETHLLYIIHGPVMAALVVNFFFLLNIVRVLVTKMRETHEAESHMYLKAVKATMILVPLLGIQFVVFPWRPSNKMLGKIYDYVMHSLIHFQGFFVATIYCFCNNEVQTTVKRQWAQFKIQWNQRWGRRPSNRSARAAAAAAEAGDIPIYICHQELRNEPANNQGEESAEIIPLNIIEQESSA
# T1 sequence (looked up) 2: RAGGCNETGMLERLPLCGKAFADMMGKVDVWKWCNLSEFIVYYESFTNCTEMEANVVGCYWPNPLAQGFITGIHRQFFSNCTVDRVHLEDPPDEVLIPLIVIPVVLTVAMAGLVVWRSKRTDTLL
# T2: human calcitonin receptor (human, UniProt P30988 25-474)
# T2 sequence (looked up): T1 sequence (looked up) 1
# B1: N^ε1-[(4S)-4-carboxy-4-(19-carboxynonadecanoylamino)butanoyl]-[Arg17,Pro21,Pro27,Arg34]-h-amylin (peptide)
# peptide: K([γGlu-C20 diacid])CNTATCATQRLANFLRHSSPNFGAIPSSTNVGRNTY-NH2
# modifications: disulfide 2-7; N-terminus assumed
# SMILES: CC[C@H](C)[C@H](NC(=O)[C@H](C)NC(=O)CNC(=O)[C@H](Cc1ccccc1)NC(=O)[C@H](CC(N)=O)NC(=O)[C@@H]1CCCN1C(=O)[C@H](CO)NC(=O)[C@H](CO)NC(=O)[C@H](Cc1c[nH]cn1)NC(=O)[C@H](CCCNC(=N)N)NC(=O)[C@H](CC(C)C)NC(=O)[C@H](Cc1ccccc1)NC(=O)[C@H](CC(N)=O)NC(=O)[C@H](C)NC(=O)[C@H](CC(C)C)NC(=O)[C@H](CCCNC(=N)N)NC(=O)[C@H](CCC(N)=O)NC(=O)[C@@H](NC(=O)[C@H](C)NC(=O)[C@@H]1CSSC[C@H](NC(=O)[C@@H](N)CCCCNC(=O)CC[C@H](NC(=O)CCCCCCCCCCCCCCCCCCC(=O)O)C(=O)O)C(=O)N[C@@H](CC(N)=O)C(=O)N[C@@H]([C@@H](C)O)C(=O)N[C@@H](C)C(=O)N[C@@H]([C@@H](C)O)C(=O)N1)[C@@H](C)O)C(=O)N1CCC[C@H]1C(=O)N[C@@H](CO)C(=O)N[C@@H](CO)C(=O)N[C@H](C(=O)N[C@@H](CC(N)=O)C(=O)N[C@H](C(=O)NCC(=O)N[C@@H](CCCNC(=N)N)C(=O)N[C@@H](CC(N)=O)C(=O)N[C@H](C(=O)N[C@@H](Cc1ccc(O)cc1)C(N)=O)[C@@H](C)O)C(C)C)[C@@H](C)O
# notes: also called compound 79
# B2: N^ε1-[(4S)-4-carboxy-4-(19-carboxynonadecanoylamino)butanoyl]-[His14,Arg17,Pro21,Pro27,His35]-h-amylin (peptide)
# peptide: K([γGlu-C20 diacid])CNTATCATQRLAHFLRHSSPNFGAIPSSTNVGSHTY-NH2
# modifications: disulfide 2-7; N-terminus assumed
# SMILES: CC[C@H](C)[C@H](NC(=O)[C@H](C)NC(=O)CNC(=O)[C@H](Cc1ccccc1)NC(=O)[C@H](CC(N)=O)NC(=O)[C@@H]1CCCN1C(=O)[C@H](CO)NC(=O)[C@H](CO)NC(=O)[C@H](Cc1c[nH]cn1)NC(=O)[C@H](CCCNC(=N)N)NC(=O)[C@H](CC(C)C)NC(=O)[C@H](Cc1ccccc1)NC(=O)[C@H](Cc1c[nH]cn1)NC(=O)[C@H](C)NC(=O)[C@H](CC(C)C)NC(=O)[C@H](CCCNC(=N)N)NC(=O)[C@H](CCC(N)=O)NC(=O)[C@@H](NC(=O)[C@H](C)NC(=O)[C@@H]1CSSC[C@H](NC(=O)[C@@H](N)CCCCNC(=O)CC[C@H](NC(=O)CCCCCCCCCCCCCCCCCCC(=O)O)C(=O)O)C(=O)N[C@@H](CC(N)=O)C(=O)N[C@@H]([C@@H](C)O)C(=O)N[C@@H](C)C(=O)N[C@@H]([C@@H](C)O)C(=O)N1)[C@@H](C)O)C(=O)N1CCC[C@H]1C(=O)N[C@@H](CO)C(=O)N[C@@H](CO)C(=O)N[C@H](C(=O)N[C@@H](CC(N)=O)C(=O)N[C@H](C(=O)NCC(=O)N[C@@H](CO)C(=O)N[C@@H](Cc1c[nH]cn1)C(=O)N[C@H](C(=O)N[C@@H](Cc1ccc(O)cc1)C(N)=O)[C@@H](C)O)C(C)C)[C@@H](C)O
# notes: also called compound 66
# B3: N^ε1-[(4S)-4-carboxy-4-(19-carboxynonadecanoylamino)butanoyl]-[Arg17,Pro21,Pro27,His35]-h-amylin (peptide)
# peptide: K([γGlu-C20 diacid])CNTATCATQRLANFLRHSSPNFGAIPSSTNVGSHTY-NH2
# modifications: disulfide 2-7; N-terminus assumed
# SMILES: CC[C@H](C)[C@H](NC(=O)[C@H](C)NC(=O)CNC(=O)[C@H](Cc1ccccc1)NC(=O)[C@H](CC(N)=O)NC(=O)[C@@H]1CCCN1C(=O)[C@H](CO)NC(=O)[C@H](CO)NC(=O)[C@H](Cc1c[nH]cn1)NC(=O)[C@H](CCCNC(=N)N)NC(=O)[C@H](CC(C)C)NC(=O)[C@H](Cc1ccccc1)NC(=O)[C@H](CC(N)=O)NC(=O)[C@H](C)NC(=O)[C@H](CC(C)C)NC(=O)[C@H](CCCNC(=N)N)NC(=O)[C@H](CCC(N)=O)NC(=O)[C@@H](NC(=O)[C@H](C)NC(=O)[C@@H]1CSSC[C@H](NC(=O)[C@@H](N)CCCCNC(=O)CC[C@H](NC(=O)CCCCCCCCCCCCCCCCCCC(=O)O)C(=O)O)C(=O)N[C@@H](CC(N)=O)C(=O)N[C@@H]([C@@H](C)O)C(=O)N[C@@H](C)C(=O)N[C@@H]([C@@H](C)O)C(=O)N1)[C@@H](C)O)C(=O)N1CCC[C@H]1C(=O)N[C@@H](CO)C(=O)N[C@@H](CO)C(=O)N[C@H](C(=O)N[C@@H](CC(N)=O)C(=O)N[C@H](C(=O)NCC(=O)N[C@@H](CO)C(=O)N[C@@H](Cc1c[nH]cn1)C(=O)N[C@H](C(=O)N[C@@H](Cc1ccc(O)cc1)C(N)=O)[C@@H](C)O)C(C)C)[C@@H](C)O
# notes: also called compound 60
# B4: N^ε1-[(4S)-4-carboxy-4-(19-carboxynonadecanoylamino)butanoyl]-[Arg17,Pro21,Pro27,His34]-h-amylin (peptide)
# peptide: K([γGlu-C20 diacid])CNTATCATQRLANFLRHSSPNFGAIPSSTNVGHNTY-NH2
# modifications: disulfide 2-7; N-terminus assumed
# SMILES: CC[C@H](C)[C@H](NC(=O)[C@H](C)NC(=O)CNC(=O)[C@H](Cc1ccccc1)NC(=O)[C@H](CC(N)=O)NC(=O)[C@@H]1CCCN1C(=O)[C@H](CO)NC(=O)[C@H](CO)NC(=O)[C@H](Cc1c[nH]cn1)NC(=O)[C@H](CCCNC(=N)N)NC(=O)[C@H](CC(C)C)NC(=O)[C@H](Cc1ccccc1)NC(=O)[C@H](CC(N)=O)NC(=O)[C@H](C)NC(=O)[C@H](CC(C)C)NC(=O)[C@H](CCCNC(=N)N)NC(=O)[C@H](CCC(N)=O)NC(=O)[C@@H](NC(=O)[C@H](C)NC(=O)[C@@H]1CSSC[C@H](NC(=O)[C@@H](N)CCCCNC(=O)CC[C@H](NC(=O)CCCCCCCCCCCCCCCCCCC(=O)O)C(=O)O)C(=O)N[C@@H](CC(N)=O)C(=O)N[C@@H]([C@@H](C)O)C(=O)N[C@@H](C)C(=O)N[C@@H]([C@@H](C)O)C(=O)N1)[C@@H](C)O)C(=O)N1CCC[C@H]1C(=O)N[C@@H](CO)C(=O)N[C@@H](CO)C(=O)N[C@H](C(=O)N[C@@H](CC(N)=O)C(=O)N[C@H](C(=O)NCC(=O)N[C@@H](Cc1c[nH]cn1)C(=O)N[C@@H](CC(N)=O)C(=O)N[C@H](C(=O)N[C@@H](Cc1ccc(O)cc1)C(N)=O)[C@@H](C)O)C(C)C)[C@@H](C)O
# notes: also called compound 77
# B5: N^ε1-[(4S)-4-carboxy-4-(19-carboxynonadecanoylamino)butanoyl]-[His14,Arg17,Pro21,Pro27,Arg34]-h-amylin (peptide)
# peptide: K([γGlu-C20 diacid])CNTATCATQRLAHFLRHSSPNFGAIPSSTNVGRNTY-NH2
# modifications: disulfide 2-7; N-terminus assumed
# SMILES: CC[C@H](C)[C@H](NC(=O)[C@H](C)NC(=O)CNC(=O)[C@H](Cc1ccccc1)NC(=O)[C@H](CC(N)=O)NC(=O)[C@@H]1CCCN1C(=O)[C@H](CO)NC(=O)[C@H](CO)NC(=O)[C@H](Cc1c[nH]cn1)NC(=O)[C@H](CCCNC(=N)N)NC(=O)[C@H](CC(C)C)NC(=O)[C@H](Cc1ccccc1)NC(=O)[C@H](Cc1c[nH]cn1)NC(=O)[C@H](C)NC(=O)[C@H](CC(C)C)NC(=O)[C@H](CCCNC(=N)N)NC(=O)[C@H](CCC(N)=O)NC(=O)[C@@H](NC(=O)[C@H](C)NC(=O)[C@@H]1CSSC[C@H](NC(=O)[C@@H](N)CCCCNC(=O)CC[C@H](NC(=O)CCCCCCCCCCCCCCCCCCC(=O)O)C(=O)O)C(=O)N[C@@H](CC(N)=O)C(=O)N[C@@H]([C@@H](C)O)C(=O)N[C@@H](C)C(=O)N[C@@H]([C@@H](C)O)C(=O)N1)[C@@H](C)O)C(=O)N1CCC[C@H]1C(=O)N[C@@H](CO)C(=O)N[C@@H](CO)C(=O)N[C@H](C(=O)N[C@@H](CC(N)=O)C(=O)N[C@H](C(=O)NCC(=O)N[C@@H](CCCNC(=N)N)C(=O)N[C@@H](CC(N)=O)C(=O)N[C@H](C(=O)N[C@@H](Cc1ccc(O)cc1)C(N)=O)[C@@H](C)O)C(C)C)[C@@H](C)O
# notes: also called compound 85
# B6: N^ε1-[(4S)-4-carboxy-4-(19-carboxynonadecanoylamino)butanoyl]-[His14,Arg17,Pro21,Pro27,His34]-h-amylin (peptide)
# peptide: K([γGlu-C20 diacid])CNTATCATQRLAHFLRHSSPNFGAIPSSTNVGHNTY-NH2
# modifications: disulfide 2-7; N-terminus assumed
# SMILES: CC[C@H](C)[C@H](NC(=O)[C@H](C)NC(=O)CNC(=O)[C@H](Cc1ccccc1)NC(=O)[C@H](CC(N)=O)NC(=O)[C@@H]1CCCN1C(=O)[C@H](CO)NC(=O)[C@H](CO)NC(=O)[C@H](Cc1c[nH]cn1)NC(=O)[C@H](CCCNC(=N)N)NC(=O)[C@H](CC(C)C)NC(=O)[C@H](Cc1ccccc1)NC(=O)[C@H](Cc1c[nH]cn1)NC(=O)[C@H](C)NC(=O)[C@H](CC(C)C)NC(=O)[C@H](CCCNC(=N)N)NC(=O)[C@H](CCC(N)=O)NC(=O)[C@@H](NC(=O)[C@H](C)NC(=O)[C@@H]1CSSC[C@H](NC(=O)[C@@H](N)CCCCNC(=O)CC[C@H](NC(=O)CCCCCCCCCCCCCCCCCCC(=O)O)C(=O)O)C(=O)N[C@@H](CC(N)=O)C(=O)N[C@@H]([C@@H](C)O)C(=O)N[C@@H](C)C(=O)N[C@@H]([C@@H](C)O)C(=O)N1)[C@@H](C)O)C(=O)N1CCC[C@H]1C(=O)N[C@@H](CO)C(=O)N[C@@H](CO)C(=O)N[C@H](C(=O)N[C@@H](CC(N)=O)C(=O)N[C@H](C(=O)NCC(=O)N[C@@H](Cc1c[nH]cn1)C(=O)N[C@@H](CC(N)=O)C(=O)N[C@H](C(=O)N[C@@H](Cc1ccc(O)cc1)C(N)=O)[C@@H](C)O)C(C)C)[C@@H](C)O
# notes: also called compound 81
# Molecular target: T1, human amylin receptor (amylin 3(a) …)
# Test: cell-based or functional assay
Ratio hCT/hAmylin funct.,hAmylin-R funct. EC50,Binder
24.5,0.161 nM,B1
–,0.027 nM,B2
–,0.351 nM,B3
–,0.145 nM,B4
26.6,0.146 nM,B5
–,0.13 nM,B6

# Molecular target: T2, human calcitonin receptor
# Test: cell-based or functional assay
row,hCTR funct. EC50,Binder
1,3.94 nM,B1
2,0.542 nM,B2
3,5.36 nM,B3
4,5.4 nM,B4
5,3.88 nM,B5
6,1.73 nM,B6
